This data set concerns the molecule itself. The data set can be described thus: SDS-PAGE with silver stain and Western blot (anti-HA); eluate of the cobalt IMAC column (HRV 3C elution) from DDM-solubilised oocyte membranes, 8% SDS polyacrylamide gel.

B1: human GLUT9b (SLC2A9b), recombinant (natural protein, UniProt Q9NRM0-2 1-511, looked up)
chain: MKLSKKDRGEDEESDSAKKKLDWSCSLLVASLAGAFGSSFLYGYNLSVVNAPTPYIKAFYNESWERRHGRPIDPDTLTLLWSVTVSIFAIGGLVGTLIVKMIGKVLGRKHTLLANNGFAISAALLMACSLQAGAFEMLIVGRFIMGIDGGVALSVLPMYLSEISPKEIRGSLGQVTAIFICIGVFTGQLLGLPELLGKESTWPYLFGVIVVPAVVQLLSLPFLPDSPRYLLLEKHNEARAVKAFQTFLGKADVSQEVEEVLAESRVQRSIRLVSVLELLRAPYVRWQVVTVIVTMACYQLCGLNAIWFYTNSIFGKAGIPPAKIPYVTLSTGGIETLAAVFSGLVIEHLGRRPLLIGGFGLMGLFFGTLTITLTLQDHAPWVPYLSIVGILAIIASFCSGPGGIPFILTGEFFQQSQRPAAFIIAGTVNWLSNFAVGLLFPFIQKSLDTYCFLVFATICITGAIYLYFVLPETKNRTYAEISQAFSKRNKAYPPEEKIDSAVTDGKINGRP
modifications: N-glycosylated (shift with PNGase; site not given)
notes: human GLUT9 isoform b (SLC2A9b), cDNA from Origene, amplified with primers from the start codon (ATGAAGCTCAGTAAAAAGGACCGAG) to the stop codon; differs from GLUT9a only in the N-terminal residues; Tag order from the N-terminus: 10xHis, FLAG, HRV 3C (PreScission) site, HA, then GLUT9b; The protein was eluted from the cobalt resin by HRV 3C cleavage, so only the HA tag stays on it (it is …)
Consider B1, for which the binding result is listed as “binds”.

The record behind these values is paper PMC4186817, “Expression, Purification, and Structural Insights for the Human Uric Acid Transporter, GLUT9, Using the Xenopus laevis Oocytes System” (PLoS ONE, 2014).
